According to patent US7556927:

Key:
[1] = molecular target: copper-induced oxidized low density lipoprotein (Cu-OxLDL) (UniProt P04114); assay: chemiluminescent ELISA, against Fab IK17 as reference
[2] = molecular target: malondialdehyde low density lipoprotein (MDA-LDL) (UniProt P04114); assay: as above
[3] = molecular target: copper-induced oxidized low density lipoprotein (Cu-OxLDL) (UniProt P04114); assay: cell-based or functional assay
[4] = molecular target: copper-induced oxidized low density lipoprotein (Cu-OxLDL) (UniProt P04114); assay: competition: ^125I-Cu-OxLDL binding to mouse peritoneal macrophages at 4 C, IK17 as competitor
[5] = molecular target: malondialdehyde low density lipoprotein (MDA-LDL) (UniProt P04114); assay: direct binding and competition assays with affinity purified Fab; method of the affinity value not stated

fold greater binding activity than parent Fab [1] [fold]	fold greater binding activity than parent Fab [2] [fold]	degradation of ^125I-Cu-OxLDL by macrophages (TCA-soluble ^125I in medium), % inhibition [3] [%]	% inhibition of binding of ^125I-Cu-OxLDL to macrophages [4] [%]	Kd [5] [nM]	Binder
50 to 500	50 to 500	–	–	–	scFv IK17 (scFv, part only; not given: linker and His tag, not shown: small tags and cut ends) scFv, part: MAEVQLLESGGDLVQPGGSLRLSCIVSGSTFSNYAMSWVRQAPGKGLEWVSAISGTGRSTNYADSVKGRFTISRDNSKDTLYLEMNSLRAEDTATYYCTRTPRIDFWNIANRHFDYWGQGTRVTVSSASTKGPSVFPLAPSSKSTSGGTAALGCLVRDYFPEPVTVSWNSGALTSGVHTFPAVLQSSGLYSLSSVVTVPSSVLTQSPATLSLSPGERVTLSCRASQSVSSSLAWYQQKPGQAPRLLIYDASNRATGVPARFSGSGSGTDFTLTISGLEPEDFAVYYCQQRYNWPPKYTFGQGTKLEIRRTVAAPSVFIFPPSDEQLKSGTASVVCLLNNFYPREAKVQWKVG
–	–	50 to 65	70 to 85	37	IK17 human monoclonal IgG Fab (Fab, V domains shown) VH: EVQLLESGGDLVQPGGSLRLSCIVSGSTFSNYAMSWVRQAPGKGLEWVSAISGTGRSTNYADSVKGRFTISRDNSKDTLYLEMNSLRAEDTATYYCTRTPRIDFWNIANRHFDYWGQGTRVTVSS VL: VLTQSPATLSLSPGERVTLSCRASQSVSSSLAWYQQKPGQAPRLLIYDASNRATGVPARFSGSGSGTDFTLTISGLEPEDFAVYYCQQRYNWPPKYTFGQGTKLEIRR
